Like-named read-outs stand apart in the source and are kept apart here.
What was measured:
[1] = target: T1, HuCD100-His (human, UniProt Q92854 22-734); experiment: ELISA
[2] = target: T2, MusCD100-His (mouse, UniProt O09126 24-733); experiment: ELISA
T2 chain: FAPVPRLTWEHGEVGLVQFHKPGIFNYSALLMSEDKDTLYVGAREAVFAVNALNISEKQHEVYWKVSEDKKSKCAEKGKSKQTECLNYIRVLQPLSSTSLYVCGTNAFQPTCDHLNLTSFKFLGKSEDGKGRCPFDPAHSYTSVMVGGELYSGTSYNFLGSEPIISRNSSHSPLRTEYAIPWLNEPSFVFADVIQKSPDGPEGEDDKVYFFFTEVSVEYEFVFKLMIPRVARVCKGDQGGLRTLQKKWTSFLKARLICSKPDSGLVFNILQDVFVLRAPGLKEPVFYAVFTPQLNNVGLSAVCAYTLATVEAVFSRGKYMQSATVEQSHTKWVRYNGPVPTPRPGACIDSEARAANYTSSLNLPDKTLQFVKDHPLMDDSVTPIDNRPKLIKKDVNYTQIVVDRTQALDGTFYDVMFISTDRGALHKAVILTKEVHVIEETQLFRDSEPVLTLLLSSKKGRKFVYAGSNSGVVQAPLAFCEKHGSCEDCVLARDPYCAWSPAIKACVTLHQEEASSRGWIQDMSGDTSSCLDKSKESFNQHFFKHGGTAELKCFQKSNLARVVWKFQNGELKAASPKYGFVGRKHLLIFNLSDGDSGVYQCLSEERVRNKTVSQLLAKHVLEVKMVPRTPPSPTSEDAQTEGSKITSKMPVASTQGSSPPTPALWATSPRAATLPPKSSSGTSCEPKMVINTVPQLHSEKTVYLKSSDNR

[3] = target: T1, HuCD100-His; experiment: ELISA; remark: listed apart in the source
[4] = target: T3, MusCD100-Fc (mouse, UniProt O09126 24-733, biotinylated in the Plexin binding and blocking assays (sites not given)); experiment: ELISA
T3 chain: T2 chain

[5] = target: T2, MusCD100-His; experiment: ELISA
[6] = target: T2, MusCD100-His; experiment: ELISA; FIG. 5B
[7] = target: HuCD100-Fc (in-house prepared) (human, UniProt Q92854 22-734, biotinylated in the Plexin binding and blocking assays (sites not given)); experiment: ELISA; first HuCD100-Fc row
[8] = target: CynoCD100-HEK293 (cynomolgus monkey); experiment: FACS

EC50 [1]: 0.122 nM | EC50 [2]: 0.0908 nM | EC50 [3]: 0.0804 µg/mL | EC50 [4]: 0.136 µg/mL | EC50 [5]: 0.174 µg/mL | EC50 [6]: 0.205 nM | EC50 [7]: 0.0469 µg/mL | EC50 [8]: 0.365 nM
B1: Pepinemab (antibody, V domains shown)
VH: QVQLVQSGAEVKKPGSSVKVSCKASGYSFSDYYMHWVRQAPGQGLEWMGQINPTTGGASYNQKFKGKATITVDKSTSTAYMELSSLRSEDTAVYYCARYYYGRHFDVWGQGTTVTVSS
VL: DIVMTQSPDSLAVSLGERATINCKASQSVDYDGDSYMNWYQQKPGQPPKLLIYAASNLESGVPDRFSGSGSGTDFTLTISSLQAEDVAVYYCQQSNEDPYTFGQGTKLEIK

Reference: patent US20260028402A1 (published 2026)
